Response data for four variants are collected here from paper PMC4132065 (2014).

Sequences and labels used below:
B1: LexA BD-Pxa2_NBD-CT [S. cerevisiae] / Gal4 AD-Pxa1_NBD-CT [S. cerevisiae] (parent complex)
chain 1: GNDMTADFITNRRLLVTASSSIGRFVELKRNIQQLRGIRLRLNKFNDLLDANKGDDEKEPRDERCIVEYDDSRIKFENIPLITPANQVLVPELSFDLKHGNHLLIIGPNGCGKSSLFRILGGLWPIRATPNKNHQSKLIMPRRTVDRDCAIFYLPQRPYMGNRSTFREQIIYPDSIEQFKERYHNDYDLGDADLIKILQLLDLEDLVTENMSLLLAQRTSKNDSQQLSTEDNQSPCAIKVRDAFSIVRNWSEELTIGVQQRLAMARMYYHKPKFAVLDECTSAVAPEMEQRMYENAQNFGISLISVCHRTSLWHFHNYLLKFDGKGGYQFGPFNPKERLCNEEKLLELNAILDQQVPLWERKLKDLTIAKESNIIRKSETNLNLFEKIEDPKTSKSNALFNANKGQRITSPTGQETSKRLPLFSQPSSSASSNLLRNNKSLNKKVKTKKEEGKER
chain 2: SRLMHSIKDISQLTGYTNRIFTLLSVLHRVHSLNFNYGAVPSILSIRTEDASRNSNLLPTTDNSQDAIRGTIQRNFNGIRLENIDVIIPSVRASEGIKLINKLTFQIPLHIDPITSKSNSIQDLSKANDIKLPFLQGSGSSLLILGPNGCGKSSIQRIIAEIWPVYNKNGLLSIPSENNIFFIPQKPYFSRGGTLRDQIIYPMSSDEFFDRGFRDKELVQILVEVKLDYLLKRGVGLTYLDAIADWKDLLSGGEKQRVNFARIMFHKPLYVVLDEATNAISVDMEDYLFNLLKRYRFNFISISQRPTLIKYHEMLLEIGENRDGKWQLQAVGTDEAITSIDNEIEELERKLERVKGWEDERTKLREKLEII
B2: LexA BD-Pxa2_NBD-CT [S. cerevisiae] / Gal4 AD-Pxa1_NBD [S. cerevisiae] (parent complex)
chain 1: B1 chain 1
chain 2: SRLMHSIKDISQLTGYTNRIFTLLSVLHRVHSLNFNYGAVPSILSIRTEDASRNSNLLPTTDNSQDAIRGTIQRNFNGIRLENIDVIIPSVRASEGIKLINKLTFQIPLHIDPITSKSNSIQDLSKANDIKLPFLQGSGSSLLILGPNGCGKSSIQRIIAEIWPVYNKNGLLSIPSENNIFFIPQKPYFSRGGTLRDQIIYPMSSDEFFDRGFRDKELVQILVEVKLDYLLKRGVGLTYLDAIADWKDLLSGGEKQRVNFARIMFHKPLYVVLDE

Variants of B1 are the subject of one experiment. As to the kind of experiment: yeast two-hybrid, quantified with Yeast β-Galactosidase Assay Kit (Thermo); n = 3; parent: 190; read off a plot.
Regarding chain 1 F333A, the response was about 69.
chain 1 Y328L: the response was about 38.

The variants in the next experiment derive from B2. The experiment can be described thus: yeast two-hybrid, quantified with Yeast β-Galactosidase Assay Kit (Thermo); n = 3; parent: 185; read off a plot.
Consider chain 1 Y328L, for which the response was about 17.
For the variant chain 1 F333A, the response was about 41.
